The test addresses ERK (extracellular-signal-regulated kinase; mitogen-activated protein kinase). Kind of test: cell-based or functional assay.

B1: ERK decoy protein (ER localization signal, a c-Myc epitope tag, and the ERK polyligand of SEQ ID NO:1) (designed binder, part only; not given: ER signal and c-Myc tag, not shown: small tags and cut ends)
chain, part: MPKKKPTPIQLNPAAKGRKPRDLELPAAAATGPLAPGPFGAGAYSPTAPTYSPTAPKKKGGGGAPRAPGGRRAGAGRRPRAPAKLSFFFPS
B1 had an ERK activity in the endoplasmic reticulum (phosphorylation of myelin basic protein), Cos7 cells with M1-RasV12 of 60% and a decrease in transformed foci formation, NIH3T3 cells transfected with H-RasV12 of 50%.

(Values after patent US20140099668A1.)
